Results: patent US10274499B2, “SH2 domain variants” (THE UNIVERSITY OF WESTERN ONTARIO, priority 2012, dated 2019)

What was measured:
[1] = system: seven fluorescein-labeled pTyr-containing peptides; assay: in-solution fluorescence polarization binding assay, set of seven peptides; settings: average over seven peptides, relative to the wild type of the same SH2 domain
Method: Each peptide was synthesized on the TentaGel amide resin (INTAVIS Inc.) and N-terminally labeled with fluorescein using NHS-fluorescein (Thermo Fisher Scientific). Each of the 13 variant and the wild-type SH2 domain was produced by overexpression in the Escherichia coli BL21(DE3) strain cultured in LB media (EMD Chemicals). Expression was induced by 0.3 mM isopropyl β-D-1-thiogalactopyranoside (IPTG), and the cell culture was incubated for 5 hours at 37° C. The cells were harvested by centrifuge, and broken on ice, in buffer solution containing 20 mM sodium phosphate, 0.1 M NaCl, 20 mM imidazole, 1 mg/ml lysozyme and 1% Triton-X 100, adjusted at pH 7.8. Affinity purification was performed with the Ni-NTA agarose resin (Qiagen Inc.), according to the manufacturer's instruction. […] Measurements of fluorescence polarization were conducted by titrating the SH2 domain concentration, while keeping the peptide concentration constant. Kd values were calculated with the GraphPad Prism software, by assuming the one-site binding model (GraphPad Software).
The determined Kd values of interaction between the 14 SH2 domains (including the wild-type) and seven peptides were listed in FIG. 7(a). […]
Fluorescence polarization assay was conducted to determine Kd values of the interaction between the wild-type or variant Src SH2 domain and seven fluorescein-labeled pTyr-containing peptides (FIG. 9a).

[2] = molecular target: T1, EGFR (Homo sapiens, UniProt P00533); assay: immunoprecipitation of GFP-fused SH2 domains with EGFR in HEK 293 cells; format: cell-based; settings: GFP-fusion expressed in HEK 293 cells, EGF 100 ng/ml, anti-GFP and anti-EGFR antibodies
T1 construct: endogenous in cells; host or cells: HEK 293
Excerpt: The three variant SH2 domains mentioned in the previous sentence were dubbed as 8V/10A/15L-substituted SH2 domains, or the TrM SH2 domains, in the following descriptions, as well as in FIG. 11 and FIG. 12. The wild-type (Wt) and TrM SH2 domains, subcloned into the pEGFPC2 vector, were expressed in the HEK 293 cells as a GFP-fusion protein. Methods used in this and the following sections are described below.
Anti-GFP rabbit polyclonal antibody was purchased from Sigma-Aldrich. Anti-EGFR rabbit polyclonal antibody was purchased from Millipore. Anti-p44/42 MAPK (Erk1/2) mouse monoclonal antibody, and anti-phospho-p44/42 MAPK (Thr202/Tyr204) mouse monoclonal antibody were purchased from Cell Signaling. HEK 293 cells were grown in Dulbecco's modification of Eagle's medium (DMEM, Sigma-Aldrich) supplemented with 10% fetal bovine serum (FBS, SAFC Biosciences), 50 units/ml penicillin and 50 μg/ml streptomycin (GIBCO Invitrogen Corp.) in a humidified atmosphere of 5% CO2 in air at 37° C. EGF (Invitrogen) at a final concentration of 100 ng/ml was added to the medium at the indicated time point. Transient transfections were carried out with jet-PEI (PolyPlus-Transfection; Illkirch, France) according to manufacturer's instruction. […]

T8V: variant Fyn SH2 domain, Thr at position 8 to Val; SEQ ID NO:5 (RKDAERQLLSFGNPRGTFLIRESETVKGAYSLSIRDWDDMKGDHVKHYK; Synthetic construct T8V)
average affinity increase, Kd[wild-type] divided by Kd[variant] [1]: 1.4 fold

wild-type Grb2 SH2 domain: polypeptide between Met55 and Pro158 of the human Grb2 [reference compound]
binding to EGFR (immunoprecipitation) [2]: Weak binding

wild-type Src SH2 domain: human Src SH2 domain between Asp144 and Lys252; SEQ ID NO:18 [reference compound]
binding to EGFR (immunoprecipitation) [2]: did not show detectable binding
